{
  "source": "patent US10772909B2",
  "about": "“System and method for insulin-mimetic of cartilage, bone, or osteochondral repair and piezoelectric composite scaffold” (New Jersey Institute of Technology, priority 2016, dated 2020)",
  "system": "PBMCs",
  "test": "PBMC proliferation assay (3H-TdR incorporation)",
  "assay_type": "cell-based, human",
  "details": "positive control, 1% PHA",
  "text": "Peripheral blood was obtained from four healthy subjects, two males and two females (ages 18-30 years old). Peripheral blood mononuclear cells (PBMCs) were isolated by Ficoll Hypaque (Sigma-Aldrich) gradient separation. Human MSCs were obtained from human bone marrow aspirates (Lonza, Walkersville, Md., USA) from four healthy subjects, two males and two females, ages 18-30 years old, according to previously published protocols and cryopreserved before use. Human MSCs were characterized for the expression of surface markers CD29, CD44, CD73, CD90, and CD105 and lack expression of CD14, CD34 and CD45 as determined by flow cytometry. The differentiation potency was determined by the differentiation of MSCs into osteoblasts, adipocytes and chondrocytes in vitro [32,33]. […]\nThe cytotoxicity of Na2WO4 was examined using PBMCs. Cell proliferation was measured using tritiated thymidine (^3H-TdR) incorporation as described in Kapoor et al.. […]\nAfter 16 h, the cells were harvested on glass fiber filters (Cambridge Technology, Inc.) using a cell harvester (EMD Millipore). […] The radioactive incorporation of ^3H-TdR in the cells was measured using a liquid scintillation counter (Beckman; Fullerton, Calif., USA). The stimulation index (SI) was calculated as disintegration per minute (dpm) of treated group/dpm of unstimulated PBMCs (0 mM).",
  "data": [
    {"substance": "phytohemagglutinin [PHA]", "values": [
      {"measurement": "stimulation index (SI)", "value": "11.5±1.2"}
    ]}
  ]
}
